Measured values from the nanobody polyreactivity screen of Harvey et al. (2022).

Assay: yeast display, Sf9 membrane polyspecificity reagent, FACS + sequencing; frameworks hold sequencing errors
Method in brief: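 Using colony PCR, genes from sorted yeast display clones were amplified, then sequenced on MiSeq at 2 × 250 and filtered by CDR length. The clones had been stained with 10% biotinylated, detergent-solubilized Sf9 membrane reagent for 1 hour at 4 °C and sorted by FACS into low and high (top ~1%) gates on anti-HA and streptavidin fluorescence. Polyreactivity labels come from the gate of origin.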

Sequence	polyreactivity (PSR sort gate)
QVQLVESGGGLVQAGGCLRLSCAASGSIFDYYTMGWYREAPGNEREFVAGISDSGGSTTYADSVKGRFTISRDNAKNTVYLQMNSLKPEDTAVYYCNAEYVGWFYKYDYWGQGTQVTVSS	high polyreactivity
QVQLVESGGGLVQAGGCLRLSCAASGSTFYGYAMGWYRQAPGKERELVAAISRIGSSTYYADSVKGRFTISRDNAKITVYLQMNSLKPEDTAVYYCAADTWKVFGVDYWGQGTQVSVSS	high polyreactivity
QVQLVESGGGLVQAGGCLRLSGAASVYTYRKYAMGWSRQAPGNERELVAAISASGGSTYYADSVKGRFTISRDKAKNTVYLPMNSLKPEDTAVYYCAKVPVTVYSRPFDYWGQGTQVTVSS	high polyreactivity
QVQLVESGGGLVQAGGGLRLSCAASGTFKRNAMGWYRQAPGKERELVATITRTGSTTYADSVKGRFTISRDNAKNTVYLQMNSLKPEDTAVYYCAAGYPPEDPEDYWGQGTQVTVSS	low polyreactivity
QVQLVESGGGLVQAGGILLLSCAASGRTFRVNTMGWYRQAPGTESELVAAISYSGASTYYADSVKGRFTISRDNAKNTVYLQMNSLKPEDTAVYYCAAAVGVALNDYWGQGTQVTVSS	high polyreactivity
QVQLVESGGGLVQAGGILRISCAASGFIFWKNAMGWYRQAPGKERELVAAISRGGSTYYADSVKGRFTISRDNAKKTVYLQMNSLKPEDTAFYYCNKVGGATDKYLYYYWGQATQVTVSS	high polyreactivity
QVQLVESGGGLVQAGGILRLICAASGLTFYRYAMGWYRQAPGKERELVAAINSRGSTYADSVKGRFTISRDNAKNTVYFQMNSLKPEDSAVYYCAARGRYRLYGYWGQVTQVTVSS	high polyreactivity
QVQLVESGGGLVQAGGILRLICAASGSTFPYNAMGWYRQAPGKERELVAAISSGGSTYYADSVNGRFTISRDNAKNTVYLELNSQKPEDTAVYYCAASLGKYIRSLGYGYWGQGTQVTVSS	high polyreactivity
QVQLVESGGGLVQAGGILRLSCAASGFIFALNAMGWYRQAPGKERELVATIDSTSGSTYYADSVKGRFTISRDNAKNTVYLQMNSLKPEDTAVYYCAVVHAQSAPMDYWGQGTQVTVSS	low polyreactivity
QVQLVESGGGLVQAGGILRLSCAASGFIFKSYAMGWYRQAPGKERELVAGITRRGGSTYYADSVKGRFTISRDNAKNTVYLQMNILKPEDTAVYYCNAGRKTADYDFLGQGTQVTVSS	high polyreactivity
QVQLVESGGGLVQAGGILRLSCAASGFNFSSYAMAWYRQAPGKERELVAAISGSGGTTYYADSVKGRFTISRDNANNTVYVLMNSLKPEDTAVYYCATRRGLVITKYGYDYWGQGTQVTVSS	high polyreactivity
QVQLVESGGGLVQAGGILRLSCAASGFTFYRNAMGWYRQAPGKERELVAAISIRSGRTYYADSLKGRFTISRDNAKNSVYLQMNSLKPEDTAVYYCNKVRLPRDPYNYWGQGTQVTVSS	high polyreactivity
QVQLVESGGGLVQAGGILRLSCAASGGIFSVYAMGWYRQAPGKERELVASITVSGGSTSYADSVKGRFTISRDNAKNTVYLQMNCLKPEDTAVYYCAADLLRYFGYYDYDSWGQGTQVTVSS	low polyreactivity
QVQLVESGGGLVQAGGILRLSCAASGITFKPYGMGWYRQAHGKESELVADITSGGITYYADSVKGRFTISRDNAKNTVYLQMNSLIAEDTAVYFCATGDLFVYYWGYVVRLYDFWGQGTQVTVSS	low polyreactivity
QVQLVESGGGLVQAGGILRLSCAASGLTFNYYDMGWYRQAPGKERELVAAISRSGTNTSYADSVKGRFTISRDNAKNTVYLQMNSLKPEDTAVYYCNSAGVYLAAGPYTANFNYNYWGQGTQVTVSS	low polyreactivity
QVQLVESGGGLVQAGGILRLSCAASGNIFPINAMGWYRQAPGKEREFVAAITRSGSRTYYADSVKGRFTISRDNAKNTVYLQMNSLKKEDTAVYYCADRGNSTPVYSRYGYWGQGTQVTVSS	low polyreactivity
QVQLVESGGGLVQAGGILRLSCAASGRIFAYYAMGWSRQAPGKERELVAAISGGGGSTYYADSVKGRFTISRDNAKNTVYLQMNSLKPEDTAVYYCAAKSSRYDYYYWGQGTQVTVSS	high polyreactivity
QVQLVESGGGLVQAGGILRLSCAASGRIFKYNAMGWYRQAPGKERELVAVITSGGSTYYADSVKGRFTISRDNAKNTVYLQMNSLKPEDTAVYYCAKKYYKVHKFDYCGQGTQVTVSS	low polyreactivity
QVQLVESGGGLVQAGGILRLSCAASGRIFRGYAMGWYIQAPAKERELVASIDWNGGRTYYADSEKGRFTISRDNAKNTVYLQMNSLKPEDTAVYYCAVLPYRTLYNYYYWGQGTQVTVSS	high polyreactivity
QVQLVESGGGLVQAGGILRLSCAASGRIFRYYAMGWYRQAPGKERELVAGITRGGTTNYADSVKGRFTISRDNAKNTVYLQMNSLKPEDTAVYYCAAETRRGIIGYDYWGQGTKVTVSS	high polyreactivity
QVQLVESGGGLVQAGGILRLSCAASGRIFSSYSMGWYRQAPGKESELVAAISRSGARTYYADSVKGRFTISRDYAKNTVYLQMNSLKPEDTAVYYCAAVTVAGYDYWGQGTQVTVSS	high polyreactivity
